# Source: doi:10.1101/2024.02.23.581731 (bioRxiv, 2024)
# “And” between values parts separate entries of the source, which are not always exact repeats. Equal entries are not always repeated. Where two headings read alike, the source gives them in different places.
# B1: mouse wild-type 5-HT3A receptor (receptor, UniProt P23979 24-489, looked up)
# chain: SRRRATQARDTTQPALLRLSDHLLANYKKGVRPVRDWRKPTTVSIDVIMYAILNVDEKNQVLTTYIWYRQYWTDEFLQWTPEDFDNVTKLSIPTDSIWVPDILINEFVDVGKSPNIPYVYVHHRGEVQNYKPLQLVTACSLDIYNFPFDVQNCSLTFTSWLHTIQDINITLWRSPEEVRSDKSIFINQGEWELLEVFPQFKEFSIDISNSYAEMKFYVIIRRRPLFYAVSLLLPSIFLMVVDIVGFCLPPDSGERVSFKITLLLGYSVFLIIVSDTLPATAIGTPLIGVYFVVCMALLVISLAETIFIVRLVHKQDLQRPVPDWLRHLVLDRIAWILCLGEQPMAHRPPATFQANKTDDCSGSDLLPAMGNHCSHVGGPQDLEKTPRGRGSPLPPPREASLAVRGLLQELSSIRHFLEKRDEMREVARDWLRVGYVLDRLLFRIYLLAVLAYSITLVTLWSIWHYS
# B2: human wild-type 5-HT3A receptor (receptor, UniProt P46098 24-478, looked up)
# chain: RRSRNTTRPALLRLSDYLLTNYRKGVRPVRDWRKPTTVSIDVIVYAILNVDEKNQVLTTYIWYRQYWTDEFLQWNPEDFDNITKLSIPTDSIWVPDILINEFVDVGKSPNIPYVYIRHQGEVQNYKPLQVVTACSLDIYNFPFDVQNCSLTFTSWLHTIQDINISLWRLPEKVKSDRSVFMNQGEWELLGVLPYFREFSMESSNYYAEMKFYVVIRRRPLFYVVSLLLPSIFLMVMDIVGFYLPPNSGERVSFKITLLLGYSVFLIIVSDTLPATAIGTPLIGVYFVVCMALLVISLAETIFIVRLVHKQDLQQPVPAWLRHLVLERIAWLLCLREQSTSQRPPATSQATKTDDCSAMGNHCSHMGGPQDFEKSPRDRCSPPPPPREASLAVCGLLQELSSIRQFLEKRDEIREVARDWLRVGSVLDKLLFHIYLLAVLAYSITLVMLWSIWQYA
# Columns and labels:
# cryo-EM structure [1] = target: the molecule itself; assay: cryo-EM structure
# cryo-EM structure [2] = target: the molecule itself; assay: cryo-EM structure; remark: listed apart in the source
Protein,stoichiometry N (cryo-EM structure [1]),stoichiometry N (cryo-EM structure [2])
B1,5,–
B2,–,5 and 4
